These are literature values, as cited in PMC6611495.

This data set has as its target protective antigen (PA) (Bacillus anthracis) (UniProt P13423).

As to rCMG2 (from UniProt P58335), the Kd was 0.4 nM.
